The values that follow come from paper doi:10.1101/2024.10.30.620795 (2024).

T1: A*01/LTD peptide on A*01/LTD (human)
T1 peptide: LTDEMIAQY

B1: 7894 (TCR)
alpha TRAV5 TRAJ39 CDR3: CAQNAGNMLTF
beta TRBV27 TRBJ1-1 CDR3: CASSLAPNTEAFF
B2: 11751 (TCR)
alpha TRAV21 TRAJ49 CDR3: CAVRPPGNQFYF
beta TRBV6-4 TRBJ2-1 CDR3: CASSPVGTQGYNEQFF
B3: 5576.2 (TCR)
alpha TRAV12-3 TRAJ49 CDR3: CAMKRDQFYF
beta TRBV6-2 TRBJ2-7 CDR3: CASRTIDLLAGEYEQYF
B4: 7094 (TCR)
alpha TRAV12-3 TRAJ33 CDR3: CAMRSNYQLIW
beta TRBV30 TRBJ2-7 CDR3: CAWRLQGAGEQYF
B5: 6319 (TCR)
alpha TRAV21 TRAJ22 CDR3: CAVKTSGSARQLTF
beta TRBV27 TRBJ2-3 CDR3: CASSSPPISVATDTQYF
B6: 3155 (TCR)
alpha TRAV12-3 TRAJ33 CDR3: CAMRSNYQLIW
beta TRBV6-5 TRBJ2-1 CDR3: CASSYAQGAQFF
B7: 11085.2 (TCR)
alpha TRAV2 TRAJ6 CDR3: CAVEDPAGGSYIPTF
beta TRBV20-1 TRBJ2-7 CDR3: CSARGATGDFYEQYF
B8: 2722 (TCR)
alpha TRAV21 TRAJ45 CDR3: CAVRGADGLTF
beta TRBV6-6 TRBJ2-7 CDR3: CASTNRASDSYEQYF
B9: 8915 (TCR)
alpha TRAV29/DV5 TRAJ49 CDR3: CAAWSRGTGNQFYF
beta TRBV20-1 TRBJ2-1 CDR3: CSARDRWEGRTNEQFF
B10: 10832 (TCR)
alpha TRAV12-2 TRAJ53 CDR3: CAVNPRGGGSNYKLTF
beta TRBV29-1 TRBJ2-7 CDR3: CSAQTAWPYEQYF
B11: 832 (TCR)
alpha TRAV13-1 TRAJ6 CDR3: CAAGSSGGSYIPTF
beta TRBV7-7 TRBJ2-1 CDR3: CASSLEGHRGLYNEQFF
B12: 509 (TCR)
alpha TRAV12-1 TRAJ36 CDR3: CVVTDLFF
beta TRBV27 TRBJ2-2 CDR3: CASSPRTGVAGELFF
B13: 6743 (TCR)
alpha TRAV5 TRAJ15 CDR3: CAGSRTGTALIF
beta TRBV27 TRBJ2-6 CDR3: CASSTGIVTGANVLTF
B14: 5170 (TCR)
alpha TRAV12-3 TRAJ33 CDR3: CAMRSNYQLIW
beta TRBV6-1 TRBJ1-5 CDR3: CASSEAQGPQHF
B15: 8395 (TCR)
alpha TRAV21 TRAJ45 CDR3: CAGGGGADGLTF
beta TRBV6-6 TRBJ2-3 CDR3: CASSYPSPDTQYF
B16: 3936 (TCR)
alpha TRAV12-3 TRAJ33 CDR3: CAMRSNYQLIW
beta TRBV27 TRBJ2-3 CDR3: CASSPSQGTQYF
B17: 66 (TCR)
alpha TRAV21 TRAJ41 CDR3: CAVQSSGSGYALNF
beta TRBV5-5 TRBJ2-7 CDR3: CASTKGTDSYEQYF
B18: 718 (TCR)
alpha TRAV3 TRAJ45 CDR3: CAVRQTGGGADGLTF
beta TRBV29-1 TRBJ2-2 CDR3: CSVPGLVYPGELFF
B19: 1735 (TCR)
alpha TRAV21 TRAJ11 CDR3: CAVTRGGYSTLTF
beta TRBV12-3 TRBJ2-1 CDR3: CASSLGTGGIDEQFF
B20: 4350 (TCR)
alpha TRAV29/DV5 TRAJ42 CDR3: CAASLNYGGSQGNLIF
beta TRBV19 TRBJ1-1 CDR3: CASSSKDITVTEAFF
B21: 5469 (TCR)
alpha TRAV12-2 TRAJ53 CDR3: CAVNWGGGSNYKLTF
beta TRBV29-1 TRBJ2-7 CDR3: CSVGQGWPYEQYF
B22: 4386 (TCR)
alpha TRAV14/DV4 TRAJ10 CDR3: CAKAGGGNKLTF
beta TRBV7-6 TRBJ2-1 CDR3: CASSLTTGQGPHNEQFF
B23: 5245 (TCR)
alpha TRAV30 TRAJ34 CDR3: CGTEIRGKLIF
beta TRBV27 TRBJ1-5 CDR3: CASSLGFPNQPQHF
B24: 5226 (TCR)
alpha TRAV21 TRAJ49 CDR3: CAVRGNQFYF
beta TRBV6-2 TRBJ2-1 CDR3: CASSYVVVQGVPYNEQFF
B25: 2058 (TCR)
alpha TRAV39 TRAJ49 CDR3: CAEGNQFYF
beta TRBV7-9 TRBJ2-1 CDR3: CASSLALAGRNYNEQFF
B26: 6254 (TCR)
alpha TRAV21 TRAJ10 CDR3: CAVGGGGGNKLTF
beta TRBV11-2 TRBJ1-2 CDR3: CASSLLWVGDYGYTF
B27: 5458 (TCR)
alpha TRAV29/DV5 TRAJ47 CDR3: CAATGGNKLVF
beta TRBV5-5 TRBJ2-7 CDR3: CASSHPLGVSSYEQYF
B28: 11949 (TCR)
alpha TRAV35 TRAJ36 CDR3: CAGQLETGANNLFF
beta TRBV10-3 TRBJ2-3 CDR3: CAINPGTSGRWGTDTQYF
B29: 386 (TCR)
alpha TRAV21 TRAJ52 CDR3: CAVRPGRGTSYGKLTF
beta TRBV19 TRBJ2-3 CDR3: CASSMGAGGAADTQYF
B30: 2495 (TCR)
alpha TRAV19 TRAJ23 CDR3: CALRIYNQGGKLIF
beta TRBV5-1 TRBJ2-1 CDR3: CASSTGLAGMSSYNEQFF
B31: 7734 (TCR)
alpha TRAV21 TRAJ29 CDR3: CAVRAGNTPLVF
beta TRBV6-2 TRBJ1-1 CDR3: CASSYTTGTVIPNTEAFF
B32: 7287 (TCR)
alpha TRAV16 TRAJ17 CDR3: CALRSPAAGNKLTF
beta TRBV27 TRBJ2-5 CDR3: CASSFAEGTQYF
B33: 7156 (TCR)
alpha TRAV29/DV5 TRAJ49 CDR3: CAASGGNQFYF
beta TRBV5-5 TRBJ2-2 CDR3: CASSAPGGVDTGELFF
B34: 4160 (TCR)
alpha TRAV35 TRAJ21 CDR3: CAGLYNFNKFYF
beta TRBV19 TRBJ1-1 CDR3: CASSTLRGDNRGTEAFF
B35: 10813 (TCR)
alpha TRAV3 TRAJ45 CDR3: CAVRDSGGGADGLTF
beta TRBV29-1 TRBJ2-2 CDR3: CSVPGLVFPGELFF
B36: 5251 (TCR)
alpha TRAV12-2 TRAJ53 CDR3: CAVNGGGGSNYKLTF
beta TRBV29-1 TRBJ2-7 CDR3: CSVGTGWPYEQYF
B37: 11870 (TCR)
alpha TRAV12-1 TRAJ9 CDR3: CVVNRGTGGFKTIF
beta TRBV27 TRBJ1-6 CDR3: CASMLASYNSPLHF
B38: 8483 (TCR)
alpha TRAV21 TRAJ20 CDR3: CAVYFRSNDYKLSF
beta TRBV20-1 TRBJ2-7 CDR3: CSATGTVNYEQYF
B39: 11151 (TCR)
alpha TRAV12-2 TRAJ53 CDR3: CAVNSGGSGGSNYKLTF
beta TRBV29-1 TRBJ2-7 CDR3: CSAQQGWPYEQYF
B40: 297 (TCR)
alpha TRAV12-2 TRAJ33 CDR3: CAVSQGGVSNYQLIW
beta TRBV29-1 TRBJ2-7 CDR3: CSVFTGWPYEQYF
B41: 201 (TCR)
alpha TRAV19 TRAJ4 CDR3: CALSLSGGYNKLIF
beta TRBV6-6 TRBJ2-7 CDR3: CASSQGVIDEQYF
B42: 11155 (TCR)
alpha TRAV16 TRAJ37 CDR3: CALNSNTGKLIF
beta TRBV27 TRBJ2-1 CDR3: CASSSFLLAGGGGNSNEQFF
B43: 545 (TCR)
alpha TRAV38-1 TRAJ23 CDR3: CALRGNQGGKLIF
beta TRBV7-9 TRBJ2-7 CDR3: CASSPDGMHEQYF
B44: 684 (TCR)
alpha TRAV38-1 TRAJ31 CDR3: CAFMKLGNNARLMF
beta TRBV10-3 TRBJ1-5 CDR3: CAISGPEINQPQHF
B45: 6844 (TCR)
alpha TRAV12-3 TRAJ33 CDR3: CAGRSNYQLIW
beta TRBV30 TRBJ2-7 CDR3: CAWSPSGSPLEQYF
B46: 11195 (TCR)
alpha TRAV19 TRAJ32 CDR3: CALRYGGATNKLIF
beta TRBV7-6 TRBJ1-2 CDR3: CASSLEGPYGYTF
B47: 841.2 (TCR)
alpha TRAV25 TRAJ38 CDR3: CAGPINAGNNRKLIW
beta TRBV6-5 TRBJ2-7 CDR3: CASSLDRVRGNSYEQYF
B48: 6548 (TCR)
alpha TRAV12-3 TRAJ33 CDR3: CASRSNYQLIW
beta TRBV6-1 TRBJ1-5 CDR3: CASSDAQAPQHF
B49: 7100 (TCR)
alpha TRAV21 TRAJ43 CDR3: CAVRGGDMRF
beta TRBV6-6 TRBJ2-7 CDR3: CASTNRGDISYEQYF
B50: 11253 (TCR)
alpha TRAV21 TRAJ40 CDR3: CAVRGGFGSGTYKYIF
beta TRBV28 TRBJ1-2 CDR3: CASRTTRANYGYTF
B51: 763 (TCR)
alpha TRAV19 TRAJ32 CDR3: CALRYGGATNKLIF
beta TRBV7-6 TRBJ1-2 CDR3: CASSLEGVGGYTF
B52: 225 (TCR)
alpha TRAV12-2 TRAJ41 CDR3: CAVGNSGYALNF
beta TRBV11-2 TRBJ2-1 CDR3: CASLEGPGNEQFF
B53: 317 (TCR)
alpha TRAV12-3 TRAJ33 CDR3: CAMRSNYQLIW
beta TRBV6-5 TRBJ2-7 CDR3: CASSYAQGEQYF
B54: 2123 (TCR)
alpha TRAV14/DV4 TRAJ43 CDR3: CAMRDLGDMRF
beta TRBV27 TRBJ1-2 CDR3: CASSFWDRRYGYTF
B55: 6265 (TCR)
alpha TRAV30 TRAJ49 CDR3: CGTAPLTGNQFYF
beta TRBV18 TRBJ1-1 CDR3: CASSHSGTAYTEAFF
B56: 6808 (TCR)
alpha TRAV17 TRAJ45 CDR3: CATKRGADGLTF
beta TRBV6-5 TRBJ1-2 CDR3: CASSYGGDVYGYTF

The experiment concerns the target T1, A*01/LTD peptide on A*01/LTD. The experiment is described as follows: activation reporter or marker.
On to B1, for which the binding result is “recognises”.

Regarding B2, the binding result is on record as “recognises”.

As for B3, the binding result is given as “recognises”.

On to B4, for which the binding result is “recognises”.

On to B5, for which the binding result is recorded as “recognises”.

For B6, the binding result was “recognises”.

On to B7, for which the binding result was “recognises”.

For B8, the binding result is given as “recognises”.

For the molecule B9, the binding result is “recognises”.

Take B10: the binding result is “recognises”.

Regarding B11, the binding result is “recognises”.

Regarding B12, the binding result is reported as “recognises”.

As to B13, the binding result is given as “recognises”.

For the molecule B14, the binding result is “recognises”.

Regarding B15, the binding result is listed as “recognises”.

As for B16, the binding result was “recognises”.

Consider B17, for which the binding result is listed as “recognises”.

As for B18, the binding result is on record as “recognises”.

Regarding B19, the binding result was “recognises”.

Turning to B20, the binding result is reported as “no recognition”.

On to B21, for which the binding result was “recognises”.

With B22, the binding result is listed as “recognises”.

For B23, the binding result is on record as “recognises”.

In the case of B24, the binding result is on record as “recognises”.

Turning to B25, the binding result is listed as “recognises”.

For the molecule B26, the binding result is recorded as “recognises”.

B27: the binding result is on record as “recognises”.

On to B28, for which the binding result is recorded as “recognises”.

As to B29, the binding result is “recognises”.

As to B30, the binding result is “recognises”.

With B31, the binding result is reported as “recognises”.

Take B32: the binding result was “recognises”.

As to B33, the binding result is given as “recognises”.

For B34, the binding result was “recognises”.

For the molecule B35, the binding result is listed as “recognises”.

Regarding B36, the binding result is “recognises”.

On to B37, for which the binding result is on record as “recognises”.

Regarding B38, the binding result is “recognises”.

With B39, the binding result is given as “recognises”.

On to B40, for which the binding result is “recognises”.

As to B41, the binding result is reported as “recognises”.

On to B42, for which the binding result was “recognises”.

With B43, the binding result is on record as “recognises”.

With B44, the binding result is “recognises”.

Turning to B45, the binding result is “recognises”.

Take B46: the binding result is reported as “recognises”.

With B47, the binding result was “recognises”.

As to B48, the binding result is given as “recognises”.

B49: the binding result is reported as “recognises”.

B50: the binding result was “recognises”.

On to B51, for which the binding result is listed as “recognises”.

For B52, the binding result was “recognises”.

With B53, the binding result is reported as “recognises”.

As for B54, the binding result is “no recognition”.

With B55, the binding result was “recognises”.

Consider B56, for which the binding result is listed as “recognises”.
